The values below come from the RNAGym collection of RNA variant scans (doi:10.7554/elife.80360).

First the molecules themselves.
B1: HDV Ribozyme (parent)
chain: GGCCGGCAUGGUCCCAGCCUCCUCGCUGGCGCCGGCUGGGCAACAUUCCGAGGGGACCGUCCCCUCGGUAAUGGCGAAUGGGACCCA

The data set covers variants of B1. Put plainly: self-cleavage, relative activity (ratio to wild type); higher = more cleavage; co-transcriptional.
For the variant GGCCGGCUUGGUCCCAGCCUCCUCGCUGGCGCCGGCUGGGCAACAUUCCGAGGGCACCGUCCCCUCGGUAAUGGCGAAUGGGACCCA [A8U G55C], the self-cleavage was determined as 1.04.
GGCCGGCUUGGUCCCAGCCUCCUCGCUGGCGCCGUCUGGGCAACAUUCCGAGGGGACCGUCCCCUCGGUAAUGGCGAAUGGGACCCA [A8U G35U]: the self-cleavage was 0.262.
On to GGCCGGCGUGGUCCCAGCCUCCUCGCUGGCGCCGGCUGGGCAACAUUCCGAGGGGACCGUCCCCUCGGUAAUGGCGAAUGUGACCCA [A8G G81U], for which the self-cleavage was determined as 0.256.
In the case of GGCCGGCGUGGUCCCAGCCUCCUCGCUGGCGCCGGCUGGGCAACAUUCCGAGGGGACCGUCCCCUCGGUAAUGGCGAAUGCGACCCA [A8G G81C], the self-cleavage is 0.115.
In the case of GGCCGGCGUGGUCCCAGCCUCCUCGCUGGCGCCGGCGGGGCAACAUUCCGAGGGGACCGUCCCCUCGGUAAUGGCGAAUGGGACCCA [A8G U37G], the self-cleavage was found to be 0.
For the variant GGCCGGCUUGGUCCCAGCCUCCUCGCUGGCGCCGGCUGGGCAACAUUCCGAGGGGACCGUCCCGUCGGUAAUGGCGAAUGGGACCCA [A8U C64G], the self-cleavage was 0.856.
In the case of GGCCGGCUUGGUCCCUGCCUCCUCGCUGGCGCCGGCUGGGCAACAUUCCGAGGGGACCGUCCCCUCGGUAAUGGCGAAUGGGACCCA [A8U A16U], the self-cleavage was found to be 0.962.
On to GGCCGGCUUGGUCCCAGCCUCCUCGCUGGCGCCGGCUGGGCAACAUUCCGAGGGGACCGUCCCCUCGGUAAUGGCGAAUGGGACCCC [A8U A87C], for which the self-cleavage came to 0.845.
For the variant GGCCGGCUUGGUCCCAGCCUCCUCGCUGGCGCCGGCUGGGCAACAUUCCGAGGGGACCGUCCCCUCGGUAAUGGCGAAUGGGACCCG [A8U A87G], the self-cleavage was 0.754.
In the case of GGCCGGCUUGGUCCCAGCCUCCUCGCUGGCGCCGGCUGGGCAACAUUCCGAGGGGACCGUCCCCUCGGUGAUGGCGAAUGGGACCCA [A8U A70G], the self-cleavage is 0.969.
Turning to GGCCGGCGUGGUCCCAGCCUCCUCGCUGGCGCCGGCUGGGCAACAUUCCGAGGGGACCGACCCCUCGGUAAUGGCGAAUGGGACCCA [A8G U60A], the self-cleavage is 0.95.
Take GGCCGGCUUGGUCCCAGCCUCCUCGCUGGCGCCGGCUGGGCAACAUUUCGAGGGGACCGUCCCCUCGGUAAUGGCGAAUGGGACCCA [A8U C48U]: the self-cleavage amounted to 1.13.
For GGCCGGCUUGGUCCCAGCCUCCUCGCUGGCGACGGCUGGGCAACAUUCCGAGGGGACCGUCCCCUCGGUAAUGGCGAAUGGGACCCA [A8U C32A], the self-cleavage was determined as 0.
In the case of GGCCGGCUUGGUCCCAGCCUCCUCGCUGGCGGCGGCUGGGCAACAUUCCGAGGGGACCGUCCCCUCGGUAAUGGCGAAUGGGACCCA [A8U C32G], the self-cleavage was 0.125.
Regarding GGCCGGCUUGGUCCCAGCCUCCUCGCUGGCGCCGGCUGGGCAACAUUCCGCGGGGACCGUCCCCUCGGUAAUGGCGAAUGGGACCCA [A8U A51C], the self-cleavage was determined as 0.633.
In the case of GGCCGGCGUGGUCCCAGCCUCCUCGCUGGCGCCGGCUGGGCAACAUUCCGAGGGGACCGUCCCCUCGGUAAUGGCGAAGGGGACCCA [A8G U79G], the self-cleavage was found to be 0.332.
For the variant GGCCGGCUUGGUCCCAGCCUCCUCGCUGGCGCCGGCUGGGCAACAUUCCGAGGGGACCGUCCCCUCGGUAAUGGCGAAUGGAACCCA [A8U G82A], the self-cleavage was determined as 0.
In the case of GGCCGGCUUGGUCCCAGCCUCCUCGCUGGCACCGGCUGGGCAACAUUCCGAGGGGACCGUCCCCUCGGUAAUGGCGAAUGGGACCCA [A8U G31A], the self-cleavage was found to be 0.405.
For the variant GGCCGGCUUGGUCCCAGCCUCCUCGCUGGCGCCUGCUGGGCAACAUUCCGAGGGGACCGUCCCCUCGGUAAUGGCGAAUGGGACCCA [A8U G34U], the self-cleavage turned out to be 0.142.
As for GGCCGGCUUGGUCCCAGCCUCCUCGCUGGCGCCAGCUGGGCAACAUUCCGAGGGGACCGUCCCCUCGGUAAUGGCGAAUGGGACCCA [A8U G34A], the self-cleavage was 0.242.
Regarding GGCCGGCGUGGUCCCAGCCUCCCCGCUGGCGCCGGCUGGGCAACAUUCCGAGGGGACCGUCCCCUCGGUAAUGGCGAAUGGGACCCA [A8G U23C], the self-cleavage worked out at 0.612.
Regarding GGCCGGCUUGGUCCCAGCCUCCUCGCUGGCGCCGGCUGGGCAACAUUCCGAGGGGACCGUCCCCUCGGUAAUGGCGAAUGGGUCCCA [A8U A83U], the self-cleavage was 0.26.
In the case of GGCCGGCGUGGUCCCAGCCUCCUCGCUGGCGCCGGCUGGGCAACAUUCCGAGGGGACCGUCCCCUCGGUAAUGGCGAAUAGGACCCA [A8G G80A], the self-cleavage stood at 0.148.
With GGCCGGCGUGGUCCCAGCCUCCUCGCUGGCGCCGGCUGGGCAACAUUCCGAGGGGACCGUCCCCUCGGUAAUGGCUAAUGGGACCCA [A8G G76U] the figure was 0.831; with GGCCGGCUUGGUCCCAGCCUCCUCGCUGGCGCCGGCUGGGCAACAUUCCGAGCGGACCGUCCCCUCGGUAAUGGCGAAUGGGACCCA [A8U G53C], 1.01; with GGCCGGCUUGGUCCCAGCCUCCUCGCUAGCGCCGGCUGGGCAACAUUCCGAGGGGACCGUCCCCUCGGUAAUGGCGAAUGGGACCCA [A8U G28A], 0.0369.
To GGCCGGCUUGGUCCCAGCCUCCUCGCUGGCGCCGGCUGGGCAACAUUCCGAGGGGACCGUCCCCUCGAUAAUGGCGAAUGGGACCCA [A8U G68A] belongs 0.511; to GGCCGGCUUGGUCCCAGCCUCCUCGCUGGCGCCGGCUGGGCAACAUUCCGAGGGGACCGUCCCCUCGGUAAUGGCUAAUGGGACCCA [A8U G76U], 0.707.
With GGCCGGCUUGGUCCCAGCCUCCUCGCUGGCGCCGGCUGGGCAACAUUCCGAGGGGACCGUCCCCUCGGUAAUGGCAAAUGGGACCCA [A8U G76A] the figure was 0.95; with GGCCGGCUUGGUCCCAGCCUCCUCGCUGGCGCCGGCUGGGCAACAUUCCGAGGGGACCGUCCCCUCGGUAAUGACGAAUGGGACCCA [A8U G74A], 0.115.
For GGCCGGCUUGGUCCCAGCCUCCUCGCUGGCGCCGGCUGGGCAACAUUCCGAGGGGACCGUCCCCUUGGUAAUGGCGAAUGGGACCCA [A8U C66U], the self-cleavage was determined as 0.906.
In the case of GGCCGGCUUGGUCCCAGCCUCCUCGCUGGCGCCGGCUGGGCAACAUUCCGAGGGGACCGUCCCCUGGGUAAUGGCGAAUGGGACCCA [A8U C66G], the self-cleavage stood at 0.8.
